B1: MATN2 (parent)
chain: FIVDILQFLDIGPDVTRVGLLQYG
B2: KRT33B (parent)
chain: PAVDLNQVLNETRNQYEALVETNR

Variants of: B1
Experiment: protein stability index of a GFP-peptide fusion (GPS, HEK-293T) (PSI 1-6); higher = more stable
Conditions: c terminus: a fixed tail appended
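Also: lentivirally expressed fusions sorted by FACS into six bins by GFP to DsRed ratio, PSI derived from sequencing read proportions per bin multiplied by bin number.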

Protein stability index: each site, then its substitutions
T16: P 2.42; R 2.33; G 2.19; M 1.06; Y 4.05; D 2.7; W 3.52; L 3.03
Q22: N 1.93; A 2.48; V 3.57; Y 4.14; G 3.55; F 3.25; S 3.08; M 2.53; K 2.98
D4: L 2.53; V 2.77; C 2.67; Q 2.72; A 2.58; E 2.88; P 5.01; Y 2.58; H 4.41; K 2.12
V3: W 3.32; P 2.84; H 4.66; K 2.6; Y 2.5; D 3.75; N 3.33
D14: A 2.27; Y 2.6; N 3.04; S 2.67; I 3.22; H 2.17; E 4.71; P 3.06
Y23: L 1.84; M 2.75; Q 2.29
L21: E 3.73; K 2.13; I 2.79; A 2.8; C 3.73; T 2.95; S 2.57; W 3.27; G 3.3; P 4.3; F 2.62; H 2.01
L6: I 2.56; A 3.92; H 3.78; R 3.41; W 3.3; F 2.17; Y 2.87; P 1.3
V15: M 4.35; F 3.1; W 2.06; P 3.2; L 1.88; N 2.49; Y 3.39; D 4.47; I 2.16; A 2.88
V18: D 2.04; S 3.5; R 1.82; P 3.38; C 2.58; N 2.16; F 3.25; K 2.05; M 2.55; Q 1.8
F1: Y 2.36; E 2.04; A 2.61; Q 2.03; N 2.54; V 1.05; P 1.15; W 2.01; K 2.46
R17: A 3.59; S 1.03; M 2.05; L 3.37; I 2.77; Y 3.22; C 2.86; G 2.07; V 3.47; N 2.75; F 2.23
I2: K 2.88; H 3.01; R 2.35; T 1.4; G 3.67; Y 3.07; L 1.44
L20: W 3.97; G 3.72; N 3.71; C 1.87; F 2.92; R 1.79; V 4; A 2.25; Y 3.45; H 2.86
F8: P 2.96; D 2; Q 2.49; L 2.43; V 2.94; K 1.06; G 4.33; T 3.44; I 2.65; S 2.12; C 2.21; N 1.68
P13: F 1.91; V 2.93; S 2.69; W 2.61; N 3.21; M 2.4; I 2.79; Q 4; A 3.91; E 2.72; K 2.15; H 2.73
Q7: K 3.78; C 2.24; D 3.01; P 2.12; S 2.27; E 3.38; T 3.12; Y 3.34; H 1.98; A 3.4
D10: R 3.54; L 2.62; W 2.66; T 3.42; E 3.48
G19: M 3.24; A 2.26; P 2.58; V 2.69; I 2.67; W 2.62; T 3.15; L 3.83; C 1.32; S 2.33; D 3.21; Q 2.7; E 3.93; H 3.51
I5: A 1.44; N 2.12; L 2.26; E 3.96; Q 1.81; F 3.88; Y 3.16; V 3.23; D 3.18
L9: K 1.84; T 2.81; F 3.76; A 1.79; Q 2.47; D 2.93; P 4.2; E 1.72
G12: R 4.05; Q 2; D 2.56; S 2.61; F 1.9; C 2.76; L 2.63; N 3.36; T 3.93; H 3.69; M 2.11; I 2.79
I11: C 1.18; G 3.02; K 3.5; T 2.8; M 3.73; Q 2.77; N 2.49; H 4.42; Y 3.28; S 2.12; L 2.53

Variants of: B2
Experiment: as above
Conditions: c terminus: a fixed tail appended

Protein stability index of substitutions, site by site:
N23: P 4.54; S 4.25; D 5.06; A 4.3; L 3.06; G 4.07; C 4.03; H 4.35; W 3.36; Q 4.43; T 4.46; F 2.58; M 3.29; R 4.31; I 3.24; K 4.54; E 4.51; Y 3.71; V 3.27
L19: W 4.25; M 3.89; S 5.03; N 4.87; K 4.95; R 4.29; P 4.97; V 4.85; F 4.11; Q 5.1; H 4.57; A 5.03; E 5.19; Y 4.61; C 4.53; D 5.42; I 4.11; T 4.7; G 4.91
V20: K 4.24; A 2.74; S 4.43; R 4.43; I 4.39; Q 4.94; H 4.92; D 5.39; F 4.09; Y 4.22; P 4.34; T 4.95; N 4.45; W 3.62; L 3.88; C 4.06; G 4.49; M 2.8; E 3.52
E21: K 4.2; M 3.67; H 4.19; P 4.18; C 3.58; R 4.04; T 4.06; G 4.22; S 4.05; D 3.69; Q 3.95; A 3.85; W 2.89; F 3.23; Y 3.23; I 3.71; N 4.14; L 3.37; V 3.54
T22: L 2.23; I 3.02; H 3.98; K 3.7; R 4.02; V 1.57; Q 3.94; N 4.5; G 4.73; Y 4.57; C 3.78; M 3.33; A 3.94; F 3.61; S 4.43; E 4.05; W 3.88; D 4.8; P 4.65
A18: V 4.06; Y 3.96; T 3.67; S 3.71; W 3.72
R24: G 4.72; D 5.15; N 4.16; M 2.16; E 4.13; P 4.94; T 3.87; L 2.54; W 3.46; Y 2.83; V 1.45; F 3; S 4.15; I 2.59; H 4.24; Q 4.16; A 4; K 3.97; C 2.43

Reference: the supplement of paper PMC10567573
